We go through four molecules from publication PMC4335062, “Data-Driven Prediction and Design of bZIP Coiled-Coil Interactions” (PLoS Computational Biology, 2015).

“And” between values parts separate entries of the source, which are not always exact repeats. Identical values can stand only once. Like-named read-outs stand apart in the source and are kept apart here. Where no end group is shown, it is not given here.

The target in series [1] is T1, ATF4/FOS heterodimer (Homo sapiens, UniProt P18848).
T1 construct: made in house
In words: Competition FRET assay. The format is binding. Conditions: 37°C; 10 nM ATF4 (fluorescein) with 200 nM FOS (TAMRA); unlabeled design. As to the method:
(§1) In the competition form of the assay, a FRET pair was made by mixing 10 nM of the donor-labeled peptide with a specified concentration of the acceptor-labeled peptide in 1 mM TCEP-HCl, and 20 μL of this solution was added to the wells after unlabeled design was titrated in 2-fold dilutions over the wells to a final concentration ranging from 0 to 2.5 μM. The amount of acceptor used varied for each curve, taking into account the Kd of the FRET complex in order to obtain a good lower baseline for fitting purposes. Samples were equilibrated for one hour before reading the plates; repeated reading of the plates over several hours gave no change in signal.
(§2) For the competition experiments, the IC50 was determined in MATLAB by fitting the binding data to the equation signal=a+b−a/(1+x/c)^H , where a and b are the lower and upper baselines, c is the IC50 value, x is the inhibitor concentration, and the Hill coefficient H was set to 1. Ki values were calculated as in Fu et al..

Series [2] has as its target T2, XBP1/CREBZF heterodimer (Homo sapiens, UniProt P17861).
T2 construct: made in house
In words: Competition FRET assay. The format is binding. Conditions: 23°C; 10 nM XBP1 (fluorescein) with 50 nM CREBZF (TAMRA); unlabeled design. As to the method:
as §1, §2

Series [3] has as its target NFE2L3 (human) (UniProt Q9Y4A8). Nature of the series: FRET or BRET; direct-binding FRET in 384-well plates; rhodamine-labelled design (acceptor) titrated 0 to 1 uM into 10 nM fluorescein-labelled bZIP (donor); 150 mM KCl, 50 mM potassium phosphate pH 7.4, 0.1% Tween-20, 0.1% BSA; 4 °C. For orientation: In BRET a luciferase serves as donor, and the signal depends on an acceptor being close.

Series [4] deals with the molecule itself. In words: FRET or BRET; direct-binding FRET of the designed peptide with itself (row 'homodimer'; dimer to monomers); acceptor-labelled design titrated into donor-labelled design by note 1 of the tables; 37 °C.
For series [5], the target named is ATF6B (Homo sapiens, UniProt Q99941). In words: FRET or BRET; direct-binding FRET in 384-well plates; rhodamine-labelled design (acceptor) titrated 0 to 1 uM into 10 nM fluorescein-labelled bZIP (donor); 150 mM KCl, 50 mM potassium phosphate pH 7.4, 0.1% Tween-20, 0.1% BSA; 37 °C.
Series [6] concerns the target ATF2 (human) (UniProt P15336). The description is as above.
Series [7] deals with MAFF (human) (UniProt Q9ULX9). The series is described as above.
Series [8] has as its target NFE2L3 (human) (UniProt Q9Y4A8). The series is described as above.
Series [9] addresses Activating Transcription Factor (ATF) 3 (human) (UniProt P18847). Described as above.
Series [10] concerns the target CREB1 (human) (UniProt P16220). Described as above.
Series [11] deals with CREB3L1 (human) (UniProt Q96BA8). The description is as above.
For series [12], the target named is CREB1 (human) (UniProt P16220). The series is described as above. The source holds these as a separate data set.
For series [13], the target named is BACH2 (Homo sapiens, UniProt Q9BYV9). The series is described as above.
Series [14] deals with BATF3 (human) (UniProt Q9NR55). The description is as above.
Series [15] concerns the target JUN (Homo sapiens, UniProt P05412). Described as above.
For series [16], the target named is ATF5-d1 labeled at the C-terminus. Nature of the series: FRET or BRET; direct-binding FRET of the designed peptide with itself (row 'homodimer'; dimer to monomers); acceptor-labelled design titrated into donor-labelled design by note 1 of the tables; 23 °C.

NFE2L3 (human), sequence (Q9Y4A8 whole entry): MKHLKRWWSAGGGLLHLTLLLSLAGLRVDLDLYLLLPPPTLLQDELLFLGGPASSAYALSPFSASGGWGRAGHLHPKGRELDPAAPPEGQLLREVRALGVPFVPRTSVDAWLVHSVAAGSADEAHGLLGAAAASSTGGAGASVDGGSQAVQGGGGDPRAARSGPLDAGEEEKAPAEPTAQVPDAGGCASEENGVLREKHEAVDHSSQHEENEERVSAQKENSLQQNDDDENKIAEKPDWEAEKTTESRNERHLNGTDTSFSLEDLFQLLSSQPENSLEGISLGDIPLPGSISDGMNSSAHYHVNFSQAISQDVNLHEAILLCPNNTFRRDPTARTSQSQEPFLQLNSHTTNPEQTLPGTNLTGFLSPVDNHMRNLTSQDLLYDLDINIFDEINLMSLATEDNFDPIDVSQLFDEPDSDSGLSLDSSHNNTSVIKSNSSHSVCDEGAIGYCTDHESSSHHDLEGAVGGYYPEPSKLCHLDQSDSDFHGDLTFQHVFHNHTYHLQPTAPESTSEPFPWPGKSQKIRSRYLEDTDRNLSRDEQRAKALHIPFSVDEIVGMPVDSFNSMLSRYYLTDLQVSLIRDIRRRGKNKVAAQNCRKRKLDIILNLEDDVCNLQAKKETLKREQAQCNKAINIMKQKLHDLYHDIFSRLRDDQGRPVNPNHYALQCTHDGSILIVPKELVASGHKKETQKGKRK
CREB1 (human), sequence (P16220 whole entry): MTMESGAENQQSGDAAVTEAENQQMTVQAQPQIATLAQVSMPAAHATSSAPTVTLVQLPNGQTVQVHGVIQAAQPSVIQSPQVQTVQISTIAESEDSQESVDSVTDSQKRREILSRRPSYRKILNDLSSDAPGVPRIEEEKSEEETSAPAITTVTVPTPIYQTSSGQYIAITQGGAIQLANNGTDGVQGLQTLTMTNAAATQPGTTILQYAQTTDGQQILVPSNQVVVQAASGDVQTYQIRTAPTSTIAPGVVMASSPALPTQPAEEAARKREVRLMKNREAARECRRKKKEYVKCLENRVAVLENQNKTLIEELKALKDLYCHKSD
Activating Transcription Factor (ATF) 3 (human), sequence (P18847 whole entry): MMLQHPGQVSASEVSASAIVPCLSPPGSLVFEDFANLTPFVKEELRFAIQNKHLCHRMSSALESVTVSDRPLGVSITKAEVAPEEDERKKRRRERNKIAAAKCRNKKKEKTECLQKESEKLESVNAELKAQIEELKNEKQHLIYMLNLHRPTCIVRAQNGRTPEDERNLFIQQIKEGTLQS
MAFF (human), sequence (Q9ULX9 whole entry): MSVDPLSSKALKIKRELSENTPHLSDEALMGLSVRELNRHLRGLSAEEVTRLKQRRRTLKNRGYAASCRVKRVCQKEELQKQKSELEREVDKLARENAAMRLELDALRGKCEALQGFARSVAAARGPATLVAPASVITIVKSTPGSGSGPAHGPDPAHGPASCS
BACH2, sequence (Q9BYV9 whole entry): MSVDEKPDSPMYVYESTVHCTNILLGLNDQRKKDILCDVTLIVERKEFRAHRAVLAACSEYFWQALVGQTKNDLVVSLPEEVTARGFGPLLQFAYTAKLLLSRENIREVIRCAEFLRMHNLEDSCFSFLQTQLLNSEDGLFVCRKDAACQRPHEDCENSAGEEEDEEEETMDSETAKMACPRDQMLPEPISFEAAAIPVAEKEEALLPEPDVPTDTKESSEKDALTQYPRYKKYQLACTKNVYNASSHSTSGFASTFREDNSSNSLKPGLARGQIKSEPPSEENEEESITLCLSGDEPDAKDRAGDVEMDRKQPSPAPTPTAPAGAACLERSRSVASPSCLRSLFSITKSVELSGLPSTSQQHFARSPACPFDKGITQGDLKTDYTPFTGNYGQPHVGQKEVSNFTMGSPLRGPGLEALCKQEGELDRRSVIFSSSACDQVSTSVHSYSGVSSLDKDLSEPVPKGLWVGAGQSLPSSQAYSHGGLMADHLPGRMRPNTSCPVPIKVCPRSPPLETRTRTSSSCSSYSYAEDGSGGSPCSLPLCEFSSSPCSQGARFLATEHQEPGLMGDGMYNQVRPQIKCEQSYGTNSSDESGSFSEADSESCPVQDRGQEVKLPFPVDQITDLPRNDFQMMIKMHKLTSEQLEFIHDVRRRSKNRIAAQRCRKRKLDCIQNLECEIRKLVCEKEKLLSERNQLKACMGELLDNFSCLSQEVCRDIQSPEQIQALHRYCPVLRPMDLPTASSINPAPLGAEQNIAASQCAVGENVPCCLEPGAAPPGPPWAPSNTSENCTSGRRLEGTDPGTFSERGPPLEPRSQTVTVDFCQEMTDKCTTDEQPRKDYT
ATF6B, sequence (Q99941 whole entry): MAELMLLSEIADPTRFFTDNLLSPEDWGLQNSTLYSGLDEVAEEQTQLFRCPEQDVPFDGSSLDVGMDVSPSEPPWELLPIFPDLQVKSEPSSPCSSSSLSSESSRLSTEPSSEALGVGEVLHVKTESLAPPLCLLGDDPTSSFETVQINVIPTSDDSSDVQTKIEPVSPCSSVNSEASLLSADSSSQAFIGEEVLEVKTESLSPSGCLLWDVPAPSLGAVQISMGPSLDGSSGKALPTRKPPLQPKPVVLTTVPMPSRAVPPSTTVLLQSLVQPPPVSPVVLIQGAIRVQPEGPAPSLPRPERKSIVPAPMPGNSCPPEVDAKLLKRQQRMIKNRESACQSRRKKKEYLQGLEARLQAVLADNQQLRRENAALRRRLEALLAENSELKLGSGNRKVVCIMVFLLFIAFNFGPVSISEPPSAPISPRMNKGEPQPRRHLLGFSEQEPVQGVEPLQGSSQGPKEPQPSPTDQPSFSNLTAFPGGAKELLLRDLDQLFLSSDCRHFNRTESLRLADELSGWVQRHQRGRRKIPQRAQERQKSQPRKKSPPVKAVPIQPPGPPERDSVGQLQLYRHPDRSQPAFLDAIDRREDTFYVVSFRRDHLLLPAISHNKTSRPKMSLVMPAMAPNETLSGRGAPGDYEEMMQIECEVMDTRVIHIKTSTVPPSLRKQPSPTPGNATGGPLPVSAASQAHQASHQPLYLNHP
ATF2 (human), sequence (P15336 whole entry): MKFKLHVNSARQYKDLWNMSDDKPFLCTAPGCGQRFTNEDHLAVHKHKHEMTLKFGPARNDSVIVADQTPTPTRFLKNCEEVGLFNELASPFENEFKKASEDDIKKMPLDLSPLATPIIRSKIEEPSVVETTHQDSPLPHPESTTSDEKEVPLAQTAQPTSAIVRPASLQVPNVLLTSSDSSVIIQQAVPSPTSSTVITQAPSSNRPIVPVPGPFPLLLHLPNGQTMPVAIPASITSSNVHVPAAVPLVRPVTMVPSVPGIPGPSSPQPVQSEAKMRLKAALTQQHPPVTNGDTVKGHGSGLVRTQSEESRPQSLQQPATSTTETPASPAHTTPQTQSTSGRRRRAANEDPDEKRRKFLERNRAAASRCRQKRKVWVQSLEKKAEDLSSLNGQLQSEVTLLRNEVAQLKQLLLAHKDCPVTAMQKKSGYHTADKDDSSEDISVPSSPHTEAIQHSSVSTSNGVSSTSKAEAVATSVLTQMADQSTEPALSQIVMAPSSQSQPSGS
CREB3L1 (human), sequence (Q96BA8 whole entry): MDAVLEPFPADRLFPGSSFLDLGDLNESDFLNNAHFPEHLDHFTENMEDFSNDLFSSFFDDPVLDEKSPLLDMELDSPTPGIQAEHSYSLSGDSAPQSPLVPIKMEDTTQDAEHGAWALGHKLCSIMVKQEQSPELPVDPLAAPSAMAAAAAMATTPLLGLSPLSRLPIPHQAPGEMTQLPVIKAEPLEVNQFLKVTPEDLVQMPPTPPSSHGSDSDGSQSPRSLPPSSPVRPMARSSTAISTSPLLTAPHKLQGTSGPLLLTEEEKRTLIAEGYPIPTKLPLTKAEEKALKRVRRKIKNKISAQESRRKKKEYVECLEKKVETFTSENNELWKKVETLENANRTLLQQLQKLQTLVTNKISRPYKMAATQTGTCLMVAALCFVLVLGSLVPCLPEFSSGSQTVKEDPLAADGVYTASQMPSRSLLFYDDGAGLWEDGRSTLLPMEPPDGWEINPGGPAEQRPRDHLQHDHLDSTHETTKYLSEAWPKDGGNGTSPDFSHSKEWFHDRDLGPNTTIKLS
JUN, sequence (P05412 whole entry): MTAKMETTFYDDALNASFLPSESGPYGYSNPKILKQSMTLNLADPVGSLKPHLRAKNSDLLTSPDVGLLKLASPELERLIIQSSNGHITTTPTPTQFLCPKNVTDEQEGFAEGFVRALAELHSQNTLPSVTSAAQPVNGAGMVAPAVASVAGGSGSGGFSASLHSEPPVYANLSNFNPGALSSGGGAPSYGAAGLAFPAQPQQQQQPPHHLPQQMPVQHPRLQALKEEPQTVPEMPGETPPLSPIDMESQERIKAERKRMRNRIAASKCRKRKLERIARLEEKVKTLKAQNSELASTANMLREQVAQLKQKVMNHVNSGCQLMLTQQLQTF
BATF3 (human), sequence (Q9NR55 whole entry): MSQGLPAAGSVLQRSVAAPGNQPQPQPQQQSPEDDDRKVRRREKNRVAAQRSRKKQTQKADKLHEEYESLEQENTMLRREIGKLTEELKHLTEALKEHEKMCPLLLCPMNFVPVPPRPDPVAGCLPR

As for “NQIKTLRTRLSKLRKDNLQLEKDIANLERKAKDLRAEKEQLEYEL [ATF4-d1]”, the half-maximal inhibitory concentration (IC50) (in general, the concentration that inhibits the measured activity by half) in series [1] worked out at 279 nM.

In series [2], “EREAQLENRVAHLKEKNQELKAQNLHLKEALSEAQNRNQELKNDA [XBP1-d1]” had an IC50 of 136 nM.

B1: ATF4-d1 labeled at the C-terminus (designed binder)
chain: GESKEYKKGSGSNQIKTLRTRLSKLRKDNLQLEKDIANLERKAKDLRAEKEQLEYELGC
modifications: also: C59 label by assay: Rhodamine Red C2-maleimide or fluorescein-5-maleimide
notes: solubility linker after the His6 tag; added to the C-terminus for labeling; one molecule for the rhodamine- and the fluorescein-labelled form; the assay tells which label stood there; also called ATF4-d1-Rhodamine; ATF4-d1-FITC; source: E. coli RP3098, purified (Ni-NTA under denaturing conditions, reverse-phase HPLC)
As for B1, the equilibrium dissociation constant (Kd) – broadly, the concentration at which binding is half-saturated – in series [3] is 1000 nM; in series [4] it was 1820 nM and 1110 nM and 2520 nM; in series [5], above 5000 nM; in [6] it was above 5000 nM; in [7], 327 nM; in series [8] it was above 5000 nM. For the same molecule, the Kd in series [9] and in [10] was above 5000 nM each time.

B2: ATF5-d1 labeled at the C-terminus (designed binder)
chain: GESKEYKKGSGSKRIAYLRQRIAELRNENHVLESRIQRMEKEKDALQQDRDHLEYELGC(Rhodamine Red C2‑maleimide)
modifications: not fully specified
For the molecule B2, the equilibrium dissociation constant (Kd) was 1000 nM in series [11]; 1000 nM in series [12]; above 5000 nM in series [13]; above 5000 nM in series [14]; above 5000 nM in [15]; 1000 nM in [16].
